One substance from publication PMC2171850 can be followed below.

The target of this assay is Hrp65, endogenous in C. tentans tissue culture cells (C. tentans (endogenous in C. tentans tissue culture cells)). The assay is described as follows: co-IP.

Regarding “Hrp59, endogenous in C. tentans tissue culture cells (natural protein)”, the percent of the association that is RNase-sensitive is 50%.
